This passage reports Kd results from PMC2796082.

Read-outs that look alike come from different tables or passages of the source.

Holding throughout (test): SPR
Background: In SPR one partner is held on a chip, and binding of the other changes the refractive index at the surface.

Test [1] has as its target T1, TGF-β3.
T1 sequence (P10600 301-412, species assumed, looked up): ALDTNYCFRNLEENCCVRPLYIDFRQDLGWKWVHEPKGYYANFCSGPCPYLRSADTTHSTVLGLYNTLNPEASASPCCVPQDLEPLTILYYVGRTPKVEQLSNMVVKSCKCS

For test [2], the target named is TGF-β1.
In test [3] the target is T1, TGF-β3. This is another data set of the same source.
Test [4] concerns the target TGF-β1. The source holds these as a separate data set.
For test [5], the target named is T2, TGF-β2.
T2 sequence (P61812 303-414, species assumed, looked up): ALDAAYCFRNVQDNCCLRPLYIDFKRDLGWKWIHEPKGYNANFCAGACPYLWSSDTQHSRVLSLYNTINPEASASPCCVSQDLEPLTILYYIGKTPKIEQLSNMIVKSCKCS

In test [6] the target is T2, TGF-β2. The source holds these as a separate data set.

Chain of TGF-β1 (P01137 279-390): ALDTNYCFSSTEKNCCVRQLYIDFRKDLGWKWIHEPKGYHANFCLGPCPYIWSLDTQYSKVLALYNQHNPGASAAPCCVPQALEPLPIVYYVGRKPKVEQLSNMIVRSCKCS

B1: Sol Δ10, soluble betaglycan endoglin-like domain (domain or fragment)
chain: GPEPSTRCELSPINASHPVQALMESFTVLSGCASRGTTGLPREVHVLNLRSTDQGPGQRQREVTLHLNPIASVHTHHKPIVFLLNSPQPLVWHLKTERLAAGVPRLFLVSEGSVVQFPSGNFSLTAETEERNFPQENEHLLRWAQKEYGAVTSFTELKIARNIYIKVGEDQVFPPTCNIGKNFLSLNYLAEYLQPKAAEGCVLPSQPHEKEVHIIELITPSSNPYSAFQVDIIVDIRPAQEDPEVVKNLVLILKCKKSVNWVIKSFDVKGNLKVIAPNSIGFGKESERSMTMTKLVRDDIPSTQENLMKWALDNGYRPVTSYTMAPVANRFHLRLENNEEMRDEEVHTIPPELRILLDPDHPPALDNPLFPGEGSPNGGLPFPFPD
B1: the Kd with TGF-β3 [1] was 5.8 µM; with TGF-β1 [2], 1.9 µM.

B2: Sol Δ11, soluble betaglycan uromodulin-like domain (domain or fragment)
chain: GPEPSTRCELSPINASHPVQAIPRRGWKEGEDRIPRPKQPIVPSVQLLPDHREPEEVQGGVDIALSVKCDHEKMVVAVDKDSFQTNGYSGMELTLLDPSCKAKMNGTHFVLESPLNGCGTRHRRSTPDGVVYYNSIVVQAPSPGDSSGWPDGYEDLESGDNGFPGDGDEGETAPLSRAGVVVFNCSLRQLRNPSGFQGQLDGNATFNMELYNTDLFLVPSPGVFSVAENEHVYVEVSVTKADQDLGFAIQTCFLSPYSNPDRMSDYTIIENICPKDDSVKFYSSKRVHFPIPHAEVDKKRFSFLFKSVFNTSLLFLHCELTLCSRKKGSLKLPRCVTPDDACTSLDATMIWTMMQNKKTFTKPLAVVLQVDYKENVPSTKDSSPIPPPPPQIFH
B2: the Kd in the test with TGF-β3 [3] amounted to 4.4 µM; with TGF-β1 [4] it was 2.9 µM; with TGF-β2 [5], 2.2 µM; with TGF-β3 [1] it was 5.8 µM; with TGF-β1 [2], 9.7 µM; in the test with TGF-β2 [6] it was 2.6 µM.

B3: Recombinant soluble betaglycan (receptor)
chain: GPEPSTRCELSPINASHPVQALMESFTVLSGCASRGTTGLPREVHVLNLRSTDQGPGQRQREVTLHLNPIASVHTHHKPIVFLLNSPQPLVWHLKTERLAAGVPRLFLVSEGSVVQFPSGNFSLTAETEERNFPQENEHLLRWAQKEYGAVTSFTELKIARNIYIKVGEDQVFPPTCNIGKNFLSLNYLAEYLQPKAAEGCVLPSQPHEKEVHIIELITPSSNPYSAFQVDIIVDIRPAQEDPEVVKNLVLILKCKKSVNWVIKSFDVKGNLKVIAPNSIGFGKESERSMTMTKLVRDDIPSTQENLMKWALDNGYRPVTSYTMAPVANRFHLRLENNEEMRDEEVHTIPPELRILLDPDHPPALDNPLFPGEGSPNGGLPFPFPDIPRRGWKEGEDRIPRPKQPIVPSVQLLPDHREPEEVQGGVDIALSVKCDHEKMVVAVDKDSFQTNGYSGMELTLLDPSCKAKMNGTHFVLESPLNGCGTRHRRSTPDGVVYYNSIVVQAPSPGDSSGWPDGYEDLESGDNGFPGDGDEGETAPLSRAGVVVFNCSLRQLRNPSGFQGQLDGNATFNMELYNTDLFLVPSPGVFSVAENEHVYVEVSVTKADQDLGFAIQTCFLSPYSNPDRMSDYTIIENICPKDDSVKFYSSKRVHFPIPHAEVDKKRFSFLFKSVFNTSLLFLHCELTLCSRKKGSLKLPRCVTPDDACTSLDATMIWTMMQNKKTFTKPLAVVLQVDYKENVPSTKDSSPIPPPPPQIFHGLDTLTV
modifications: glycoprotein, devoid of GAG chains
For the molecule B3, the values for the Kd with TGF-β3 [1], in the test with TGF-β1 [2] and with TGF-β2 [6] were 0.143 µM, 0.095 µM and 0.036 µM, respectively.

As a reminder, the Kd is the equilibrium constant for the complex coming apart. Low readings indicate higher affinity, high ones lower affinity.
